Laboratory results taken from patent publication US20200024358A1 (published 2020).
Substitutions are numbered along the chain they refer to.

T1: Human BCMA labelled with a fluorescent dye (human, UniProt Q02223 1-54, limits assumed, labelled with a fluorescent dye (dye and site not stated))
T1 construct: also called fluorescently labeled BCMA
T1 sequence (looked up): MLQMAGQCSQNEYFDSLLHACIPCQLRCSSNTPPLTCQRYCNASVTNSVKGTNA

T2: recombinant Human BCMA Fc Chimera (produced in-house via transient expression in HEK293-6E cells) (human, UniProt Q02223 1-54)
T2 construct: not shown: Fc part of the chimera
T2 sequence (looked up): T1 sequence (looked up)

B1: CDR1-007 (other)
heavy: QIQLVQSGPELKKPGETVKISCKASGYTFTDYSINWVKRAPGKGLKWMGWINTETREPAYAYDFRGRFAFSLETSASTAYLQINNLKYEDTATYFCALDYSYAMDYWGQGTSVTVSSASTKGPSVFPLAPSSKSTSGGTAALGCLVKDYFPEPVTVSWNSGALTSGVHTFPAVLQSSGLYSLSSVVTVPSSSLGTQTYICNVNHKPSNTKVDKRVEPKSCGGGGSEIVMTQSPSTLSASVGDRVIITCQASEDIYSLLAWYQQKPGKAPKLLIYDASDLASGVPSRFSGSGSGAEFTLTISSLQPDDSATYYCQGNYGSSSSSSYGAVFGQGTKLTVLGGGGGSGGGGSGGGGSGGGGSEVQLVESGGGSVQPGGSLRLSCTVSGIDLSSYTMGWVRQAPGKGLEWVGIISSGGRTYYASWAKGRFTISRDTSKNTVYLQMNSLRAEDTATYYCARGRYTGYPYYFALWGQGTTVTVSS
light: DIVLTQSPASLAMSLGKRATISCRASESVSVIGAHLIHWYQQKPGQPPKLLIYLASNLETGVPARFSGSGSGTDFTLTIDPVEEDDVAIYSCLQSRIFPRTFGGGTKLEIKRTVAAPSVFIFPPSDEQLKSGTASVVCLLNNFYPREAKVQWKVDNALQSGNSQESVTEQDSKDSTYSLSSTLTLSKADYEKHKVYACEVTHQGLSSPVTKSFNRGECGGGGSAVVTQEPSLTVSPGGTVTLTCGSSTGAVTTSNYANWVQQKPGKSPRGLIGGTNKRAPGVPARFSGSLLGGKAALTISGAQPEDEADYYCALWYSNHWVFGGGTKLTVLGGGGGSGGGGSGGGGSGGGGSEVQLVESGGGSVQPGGSLRLSCAASGFTFSTYAMNWVRQAPGKGLEWVGRIRSKANNYATYYADSVKGRFTISRDDSKNTLYLQMNSLRAEDTATYYCVRHGNFGDSYVSWFAYWGQGTTVTVSS
notes: also called CDR-007; trispecific CDR1-007
B2: CDR1-005 (bispecific antibody)
heavy: QIQLVQSGPELKKPGETVKISCKASGYTFTDYSINWVKRAPGKGLKWMGWINTETREPAYAYDFRGRFAFSLETSASTAYLQINNLKYEDTATYFCALDYSYAMDYWGQGTSVTVSSASTKGPSVFPLAPSSKSTSGGTAALGCLVKDYFPEPVTVSWNSGALTSGVHTFPAVLQSSGLYSLSSVVTVPSSSLGTQTYICNVNHKPSNTKVDKRVEPKSC
light: B1 light
B3: CDR1-017 (other)
heavy: B1 heavy with R458A
light: B1 light
notes: also called trispecific CDR1-017
B4: CDR1-011 (other)
heavy: B1 heavy with Y255A
light: B1 light
notes: also called CDR1-0011
B5: CDR1-008 (bispecific antibody)
scFv: DIVLTQSPASLAMSLGKRATISCRASESVSVIGAHLIHWYQQKPGQPPKLLIYLASNLETGVPARFSGSGSGTDFTLTIDPVEEDDVAIYSCLQSRIFPRTFGGGTKLEIKGGGGSGGGGSGGGGSGGGGSQIQLVQSGPELKKPGETVKISCKASGYTFTDYSINWVKRAPGKGLKWMGWINTETREPAYAYDFRGRFAFSLETSASTAYLQINNLKYEDTATYFCALDYSYAMDYWGQGTSVTVSSGGGGSAVVTQEPSLTVSPGGTVTLTCGSSTGAVTTSNYANWVQQKPGKSPRGLIGGTNKRAPGVPARFSGSLLGGKAALTISGAQPEDEADYYCALWYSNHWVFGGGTKLTVLGGGGGSGGGGSGGGGSGGGGSEVQLVESGGGSVQPGGSLRLSCAASGFTFSTYAMNWVRQAPGKGLEWVGRIRSKANNYATYYADSVKGRFTISRDDSKNTLYLQMNSLRAEDTATYYCVRHGNFGDSYVSWFAYWGQGTTVTVSS
notes: also called bispecific tandem scFv BCMA/CD3; scFv BCMA/scFv CD3 BiTE

Legend:
[1] = target: T1, Human BCMA labelled with a fluorescent …; experiment: MicroScale Thermophoresis, labelled BCMA at 2 nM
Description: Human BCMA was labelled with a fluorescent dye and kept at a constant concentration of 2 nM. […] The samples were analyzed on a Monolith NT.115 Pico at 25° C., with 5% LED power and 40% Laser power.

[2] = target: T3, recombinant human CD3 epsilon His-tag protein (Novoprotein, Cat. No. C578) (human, UniProt P07766 23-126); experiment: dual-binding ELISA: BCMA Fc coated, then CD3 epsilon His, anti-His detection
T3 construct: Bought protein; not shown: His-tag

[3] = target: T4, extracellular domain of human PD-L1 (Example 8) (human, UniProt Q9NZQ7 19-238); experiment: Kinetic Exclusion Assay (KinExA 3200), 1:1 model
T4 construct: extracellular domain; also called PD-L1 antigen; immobilized PD-L1
Description: (§1) Studies were designed to measure the free antibody in samples with a fixed antibody concentration and different concentrations of antigen PD-L1 at equilibrium, reaction mixtures were performed in PBS (pH 7.4) with 1 mg/ml BSA. […] The equilibrium titration and kinetics data were fit to a 1:1 reversible binding model using KinExA Pro software (version 4.2.10; Sapidyne Instruments) to determine the Kd.

[4] = target: T4, extracellular domain of human PD-L1 …; experiment: competition ELISA in solution (Friguet), Scatchard plot
Description: First, mixtures of the trispecific antibody (Ab) at a fixed concentration and the PD-L1 antigen (Ag) at varying concentrations were incubated for sufficient time to reach equilibrium. Then the concentration of trispecific antibody, which remained unsaturated at equilibrium (not associated with PD-L1 antigen), was measured by a classical indirect ELISA using PD-L1 coated plates. […] The Kd was calculated from a Scatchard plot using the following equation:

[5] = target: T2, recombinant Human BCMA Fc Chimera …; experiment: dual-binding ELISA: BCMA Fc coated, then CD3 epsilon His, anti-His detection
[6] = target: T4, extracellular domain of human PD-L1 …; experiment: Kinetic Exclusion Assay (KinExA 3200)
Description: as §1

T4 sequence (Q9NZQ7 19-238): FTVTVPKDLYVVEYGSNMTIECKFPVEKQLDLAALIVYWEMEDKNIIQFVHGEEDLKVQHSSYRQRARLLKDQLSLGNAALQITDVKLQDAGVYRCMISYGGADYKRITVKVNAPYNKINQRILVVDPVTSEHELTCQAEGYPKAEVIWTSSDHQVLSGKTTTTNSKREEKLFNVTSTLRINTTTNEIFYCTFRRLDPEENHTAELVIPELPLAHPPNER
T3 sequence (P07766 23-126): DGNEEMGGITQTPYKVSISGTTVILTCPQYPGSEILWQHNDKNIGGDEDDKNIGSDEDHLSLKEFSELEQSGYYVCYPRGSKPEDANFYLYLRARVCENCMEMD

| Binder | Kd [1] [nM] | binding result [2] | Kd [3] [nM] | Kd [4] [nM] | binding result [5] | fold difference in affinity against CDR1-007 (WT) [6] [fold] |
| --- | --- | --- | --- | --- | --- | --- |
| B1 | 8.5 to 9.9 | binds | 0.0217 to 0.042 | 0.11 |  |  |
| B2 |  | binds |  |  | binds |  |
| B3 |  |  |  | 26 |  | ~1000 |
| B4 |  |  |  | 5 |  |  |
| B5 |  | binds |  |  | binds |  |
